Consider seven sequences from a protein production outcome set (Wang et al. 2014).

The data set can be described thus: label from the status in PepcDB records.
“MSKARKTAASSGEPDFWRVARDWLHHWLPKVRGSSPKTVEAYRIGLESYVRWLETTEGTQRSHIGFGHFDRARLGRWVEWMRTERGYSDRTIMLRMTTMRVFLDHAGLEHPALTALGNDAAGIRVKPPARKPVDHLGEEHTKALLTAWGTGDAKSRRNRMLLILMYDTAARIGELAALTIADVGMDKPARVTLTGKRGKSRVVPLGERTRTHLAAYLEEFHPGPSMRDGDRPLFHSTRNGAIQPLSVDRIDEILKTAAARARRGTCPSMPERVHCHLIRRTRAMDLYQQGVPLPLIMQLLGHESMSTTSAFYAFATLDMMRKAVDAANPGPDPSKETWLSEQRLRQLHTLK”: the protein production entry is “failed”. For “MSKELTAKKRAALNRLKTVRGHLDGIVRMLESDAYCVDVMKQISAVQSSLERANRVMLHNHLETCFSTAVLDGHGQAAIEELIDAVKFTPALTGPHARLGGAAVGESATEEPMPDASNM”, the protein production entry is reported as “not failed”.

Turning to “MSKFRSCSWKCSDMGKSLCGAGGLVWTPPHPLLRKALSHRGRGVKDTNFVGMTTRAVRKGTLRARALRRTQTVEEKTLWLALRNRFLNVKFRRQWPMGGYVVDFVCFEAKLIVELDGSQHAEEAARDYDAVRTEFLEAGGFTVLRFWNNEVRKNLEGVLLEIQKRLP”, the protein production entry was “failed”. As for “MSKGKYIHFDTLVSAKTGDIVAIQDILNQFRGYIISRSLRTAYRSDGSLYQYIDTDVQHKMETDLIEAIYKFEIRLEHHHHHH”, the protein production result was “failed”. On to “MSKGTLFTIAVTPKIPPRLARLEDLANDLWYSWDRATRSLFSRLDPSLWGAVGHNPKAFLKRVDETLLLKAAEDQVFLANYNSIVSAYDYYHSETLWNGIDASLNPSDKIAYFCFEFGFHESFPIYSGGLGILAGDHCKAASDLRLPLIGIGLLYRQGYFFQTIDNQGNQQVIYADSDFSDLPVAPVLREDGSEVRIKVELLQRPVAIKVWRAKIGHVSLYLLDTDLPENSPGDRDITHQLYGGDRVMRIEQEIVLGVGGIRALREMGIEPTIWHINEGHAAFMMLERIRGHVQQGLDFPAALEAVAASTVFTTHTAVPAGHDHFSDDMMNAYFEPFYRDLKITREDFLALGRVPGSDDFNMTDLAIRASRYQNGVSKIHGNVSARICKDVWPQIEPEENPMSYITNGVHVPTFLAQEWADLFDRYLGYEWRNNMCDTEYWSRIDTIPDHLFWSVRQTLKSQMFYGIRARLTTQNARNHGSEAHLDRLLRFTDPINPNILTLGFGRRFATYKRATLLFEDLDWLRRIMLDQEHPVMIVFAGKAHPADVPGQDLIRRVSEIARMPEFEGQILLVEDYDLRLARRLVAGVDVWINSPVYPLEASGTSGMKAGINGTINLSVLDGWWGEGYDGKNGWAIKPGPENMDAVRRDKEESKDFYETLQDHVVPLYYNRDKLGYSSGWVKMAKNSMKSLLPRYNATRMITEYTMKFYLPAKKQGALYAADDFSNARKIAAWKAFVREAWPGVTIRRLDKPFSQISFGEAVDFRVAVRLNGLHPEDVVVELLICRRLKKTTLCSFKHVRFQFRGIEEESAEHLFELDHTPDLCGKLDYYIRVYPYHALLTHPFEMGMMVWL”, for which the protein production result was “failed”. With “MSKHTVLFELGCEELPPKSLKTLRDALQAETVKGLKDAGLAFASIEAYAAPRRLALKIVDVDGAQADTQKRFDGPAVQAAYDAEGKPTKALEGFMRGQGITADQVSTFQAGKVEKVCYLKDVKGQTLDALLPQILQTALDNLPIAKRMRSAASRTEFVRPVKWVVLLKDDQIIEATIQDHQAGNVTYGHRFHAPEAVTLAHANDYLAALEKAYVVANFEKRQATIQEQVKKLADEVNATAIVPADLLDEVTSLVEWPVALRANFEERFLAVPQEALITTMQDNQKYFCLINSEGKLQPYFITVSNIESKDPTQIIEGNEKVVRPRLSDAEFFFLQDQKQPLASRKEKLANMVFQAQLGTLWDKSTRIAKLAVALSPITGANPADAEKAALLAKCDLTSELVGEFPELQGIAGTYYARIEGENTEVSEALGEQYLPKFAGDVLPKTKTGTTIALADRLDTLVGIFGIGQAPTGSKDPFALRRSAIGILRLIIENELDVTIEELVNLALQGYGDIVKDHDKTLADAVAFLEGRYRAKYEDQGVAVDVLQAVQALAPKS”, the protein production result is recorded as “failed”. On to “MSKKIFAALIVAVVATFAGYNIYQSQRAEMEMSDLAMANIEALANDGESSTETTWSCKGTVGTCGAKCGLCGTTIPKSKGTLTGSHKCSM”, for which the protein production entry is “failed”.
